Consider 5 molecules from US20240336672A1 (INSTITUT PASTEUR, published 2024).

Changes are numbered by the printed parent chain. Several values for one entry are separate records, joined by “and”; a condition that tells them apart may be missing. Equal values may be shown once.

The target in assay [1] is T1, CoV-HKU1 Spike ectodomain (HKU1-CoV, UniProt Q0ZME7 14-1276).
T1 chain: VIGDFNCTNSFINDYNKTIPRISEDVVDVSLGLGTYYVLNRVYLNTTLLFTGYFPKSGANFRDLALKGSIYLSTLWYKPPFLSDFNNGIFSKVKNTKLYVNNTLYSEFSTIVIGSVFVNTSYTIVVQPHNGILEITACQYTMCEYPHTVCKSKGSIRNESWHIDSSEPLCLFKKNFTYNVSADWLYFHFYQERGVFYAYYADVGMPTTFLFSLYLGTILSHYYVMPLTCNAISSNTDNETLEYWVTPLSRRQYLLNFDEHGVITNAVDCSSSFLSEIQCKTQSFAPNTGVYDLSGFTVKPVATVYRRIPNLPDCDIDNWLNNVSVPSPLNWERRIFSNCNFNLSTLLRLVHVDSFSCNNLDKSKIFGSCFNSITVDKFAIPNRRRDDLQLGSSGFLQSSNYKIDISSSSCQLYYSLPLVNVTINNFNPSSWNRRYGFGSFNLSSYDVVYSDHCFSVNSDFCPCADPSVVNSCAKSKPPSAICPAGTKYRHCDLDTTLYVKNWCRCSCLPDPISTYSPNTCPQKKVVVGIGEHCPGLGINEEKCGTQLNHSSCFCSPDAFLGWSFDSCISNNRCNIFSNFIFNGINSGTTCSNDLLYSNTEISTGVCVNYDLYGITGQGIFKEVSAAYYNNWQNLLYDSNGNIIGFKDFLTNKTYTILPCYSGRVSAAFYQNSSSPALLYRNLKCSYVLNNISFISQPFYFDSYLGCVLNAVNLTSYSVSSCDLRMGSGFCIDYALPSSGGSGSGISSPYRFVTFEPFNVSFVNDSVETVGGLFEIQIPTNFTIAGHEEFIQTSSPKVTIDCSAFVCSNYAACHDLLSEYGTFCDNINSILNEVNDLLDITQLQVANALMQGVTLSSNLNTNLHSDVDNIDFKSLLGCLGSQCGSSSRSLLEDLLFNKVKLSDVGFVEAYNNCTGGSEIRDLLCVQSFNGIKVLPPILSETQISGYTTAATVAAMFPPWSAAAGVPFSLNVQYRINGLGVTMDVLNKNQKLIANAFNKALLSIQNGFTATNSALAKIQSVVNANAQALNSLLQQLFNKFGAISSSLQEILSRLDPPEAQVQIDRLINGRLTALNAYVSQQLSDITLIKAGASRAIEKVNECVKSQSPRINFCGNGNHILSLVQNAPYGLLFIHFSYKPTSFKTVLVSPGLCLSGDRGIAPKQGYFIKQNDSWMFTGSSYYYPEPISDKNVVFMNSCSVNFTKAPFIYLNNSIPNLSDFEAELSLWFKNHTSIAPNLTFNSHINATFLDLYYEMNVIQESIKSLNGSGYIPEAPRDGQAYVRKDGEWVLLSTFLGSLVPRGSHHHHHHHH
The assay can be described thus: ELISA, coated antigen. Also: test concentration or dose not given here.

Assay [2] concerns the target SARS-CoV-2 spike, Alpha variant (B.1.1.7), on virus or pseudotyped particles (SARS-CoV-2). The assay can be described thus: cell-based or functional assay.
For assay [3], the target named is SARS-CoV-2 spike, Omicron BA.1 variant, on virus (SARS-CoV-2). As to the kind of experiment: cell-based or functional assay.
The target of assay [4] is SARS-CoV-2 spike, Delta variant (B.1.617.2), on virus or pseudotyped particles (SARS-CoV-2). The assay can be described thus: cell-based or functional assay.
For assay [5], the target named is SARS-CoV-2 spike, Omicron BA.1 variant, on virus (SARS-CoV-2). The assay can be described thus: cell-based or functional assay. This is another data set of the same source.
The target of assay [6] is T2, CoV-OC43 Spike ectodomain (OC43-CoV, UniProt P36334 14-1263).
T2 chain: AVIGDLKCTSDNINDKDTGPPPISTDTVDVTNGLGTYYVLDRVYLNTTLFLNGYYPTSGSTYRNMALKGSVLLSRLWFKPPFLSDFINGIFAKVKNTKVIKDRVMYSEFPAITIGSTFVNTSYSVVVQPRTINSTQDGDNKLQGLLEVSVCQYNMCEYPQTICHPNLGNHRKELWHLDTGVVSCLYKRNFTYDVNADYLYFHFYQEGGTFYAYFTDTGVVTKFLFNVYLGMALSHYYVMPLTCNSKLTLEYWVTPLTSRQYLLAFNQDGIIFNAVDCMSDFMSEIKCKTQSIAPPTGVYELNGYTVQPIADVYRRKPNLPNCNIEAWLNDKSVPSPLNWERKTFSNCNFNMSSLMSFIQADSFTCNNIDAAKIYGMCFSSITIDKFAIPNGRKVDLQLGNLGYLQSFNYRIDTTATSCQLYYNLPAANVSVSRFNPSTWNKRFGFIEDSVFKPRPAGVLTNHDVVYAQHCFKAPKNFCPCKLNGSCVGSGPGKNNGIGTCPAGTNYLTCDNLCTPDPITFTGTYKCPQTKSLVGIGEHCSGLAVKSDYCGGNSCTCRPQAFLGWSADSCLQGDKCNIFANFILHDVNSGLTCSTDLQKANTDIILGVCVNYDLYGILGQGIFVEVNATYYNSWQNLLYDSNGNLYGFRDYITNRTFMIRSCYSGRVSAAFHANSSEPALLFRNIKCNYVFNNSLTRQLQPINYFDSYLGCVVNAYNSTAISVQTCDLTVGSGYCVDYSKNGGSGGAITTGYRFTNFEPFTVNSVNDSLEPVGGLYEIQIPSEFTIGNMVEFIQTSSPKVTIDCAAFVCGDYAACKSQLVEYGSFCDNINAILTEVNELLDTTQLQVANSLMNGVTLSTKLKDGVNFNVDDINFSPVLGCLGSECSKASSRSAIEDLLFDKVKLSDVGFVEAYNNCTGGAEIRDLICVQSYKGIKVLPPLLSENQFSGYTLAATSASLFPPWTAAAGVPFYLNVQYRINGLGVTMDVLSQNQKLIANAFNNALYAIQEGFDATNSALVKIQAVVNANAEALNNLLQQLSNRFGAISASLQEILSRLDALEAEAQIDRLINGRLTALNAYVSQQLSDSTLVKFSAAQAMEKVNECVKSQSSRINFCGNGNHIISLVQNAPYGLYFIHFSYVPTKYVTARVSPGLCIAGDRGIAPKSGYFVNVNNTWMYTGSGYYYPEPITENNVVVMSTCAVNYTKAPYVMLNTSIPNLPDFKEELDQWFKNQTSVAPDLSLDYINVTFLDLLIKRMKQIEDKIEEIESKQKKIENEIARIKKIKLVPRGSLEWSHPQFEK
As to the kind of experiment: ELISA, coated spike ectodomain. (An ELISA detects its analyte on a solid surface through an enzyme-linked reagent.)

B1: Cv2.1353 (recombinant human IgG1) (antibody, V domains shown)
VH: EVQLVESGGGLVQPGGSLRLSCAASGVTVSSNYMNWVRQAPGKGLEWVSVIYSGGSTFYADSVKGRFIISRDNSKNTLYLQMNSLKTEDTAVYYCARDLGPMGFDIWGQGTMVTVSS
VL: DIQMTQSPSFLSASVGDRVTITCRASQGISSYLAWYQQKPGKAPKLLIYAASTLQSGVPSRFSGSGSGTEFTLTISSLQPEDFATYYCQQLNSDPPVTFGPGTKVDIKR
In the case of B1, the “ELISA OD” value in assay [1] was determined as 0.1 OD.

B2: Cv2.3194 (recombinant human IgG1) (antibody, V domains shown)
VH: EVQLVESGGGLIQPGGSLRLSCAASGITVTSNYMSWVRQAPGKGLEWVSVIYPGGSTFYADSVKGRFTISRDNSKNTLYLQMNSLRAEDTAVYYCARDLVVYGMDVWGQGTTVTVSS
VL: EIVLTQSPGTLSLSPGERATLSCRASQSVSSSYLAWYQQKPGQAPRLLIYGASSRATGIPGRFSGSGSGTDFTLTISRLEPEDFAIYYCQQGVTFGGGTKVEIKR
With B2, the “ELISA OD” value in assay [1] was determined as 0.1 OD. In assay [2], the “Pseudoneutralization IC50” value turned out to be 0.0347 µg/mL, the “Pseudoneutralization IC90” value was 0.132 µg/mL, the “S-Fuse neutralization IC50” value came to 0.0043 µg/mL and the “S-Fuse neutralization IC90” value stood at 0.0054 µg/mL. Moreover, in assay [3], the “S-Fuse neutralization IC50” value amounted to 0.0242 µg/mL and the “S-Fuse neutralization IC90” value was 0.709 µg/mL. Also, the “IC50, S-Fuse neutralisation” value in assay [4] is 0.0074 µg/mL. In addition, in assay [5], the “S-Fuse IC50” value was 0.0242 µg/mL.

B3: Cv2.5213 (recombinant human IgG1) (antibody, V domains shown)
VH: B2 VH with I27F, T30S, V50L, P53S, F58Y, V100N, V101Y, T111A
VL: B1 VL with F10S, E70D, N92D, D94Y, P95S, V97F
With B3, in assay [1], the “ELISA OD” value worked out at 0.1 OD.

B4: Cv2.3235 (recombinant human IgG1) (antibody, V domains shown)
VH: B2 VH with I27F, T30S, S31R, P53S, L99G, V100D, V101Y
VL: DIQMTQSPSFLSASVGDRVTITCRASQGISSFLAWYQQKPGKAPKLLIYGASTLQSGVTSRFSGSGSGTEFTLTISSLQPEDFATYYCQRLDSYPPITFGQGTRLEIKR
B4: the “ELISA OD” value in assay [1] amounted to 0.2 OD. The binding result in assay [6] was “no binding”.

B5: Cv2.1169 (recombinant human IgG1) (antibody)
heavy: QVQLVQSGPEVKKPGTSVKVSCKASGFTFTTSAVQWVRQARGQRLEWIGWIVVGSGNTNYAQKFQERVTITRDMSTTTAYMELSSLRSEDTAVYYCAAPYCSGGTCLDGFDIWGQGTMVTVSSASTKGPSVFPLAPSSKSTSGGTAALGCLVKDYFPEPVTVSWNSGALTSGVHTFPAVLQSSGLYSLSSVVTVPSSSLGTQTYICNVNHKPSNTKVDKKVEPKSCDKTHTCPPCPAPELLGGPSVFLFPPKPKDTLMISRTPEVTCVVVDVSHEDPEVKFNWYVDGVEVHNAKTKPREEQYNSTYRVVSVLTVLHQDWLNGKEYKCKVSNKALPAPIEKTISKAKQPREPQVYTLPPSRDELTKNQVSLTCLVKGFYPSDIAVEWESNGQPENNYKTTPPVLDSDGSFFLYSKLTVDKSRWQQGNVFSCSVMHEALHNHYTQKSLSLSPGK
light: not shown
notes: also called Cv2.1169 IgG
In the case of B5, in assay [1], the “ELISA OD” value worked out at 0.1 OD. For the same molecule, in assay [6], the binding result is listed as “no binding”. For the same molecule, in assay [2], the “Pseudoneutralization IC50” value was 0.0055 µg/mL, the “Pseudoneutralization IC90” value was determined as 0.024 µg/mL, the “S-Fuse neutralization IC50” value was determined as 0.0016 µg/mL and the “S-Fuse neutralization IC90” value was 0.004 µg/mL. In assay [3], the “S-Fuse neutralization IC50” value is 0.265 µg/mL and the “S-Fuse neutralization IC90” value turned out to be 7.59 µg/mL. For the same molecule, the “IC50, S-Fuse neutralisation” value in assay [4] is 0.0025 µg/mL. For the same molecule, in assay [5], the “S-Fuse IC50” value was 0.253 µg/mL and 0.212 µg/mL; the “neutralization IC50” value was ~0.25 µg/mL.
